# Results published in US12570957B2, “Isolated naive pluripotent stem cells and methods of generating same” (Yeda Research and Development Co. Ltd., priority 2013, dated 2026).
# B1: BMP4: bone morphogenetic protein 4, recombinant human (protein, UniProt P12644 293-408, looked up)
# Bone morphogenetic protein 4: SPKHHSQRARKKNKNCRRHSLYVDFSDVGWNDWIVAPPGYQAFYCHGDCPFPLADHLNSTNHAIVQTLVNSVNSSIPKACCVPTELSAISMLYLDEYDKVVLKNYQEMVVEGCGCR
# Assays:
# Assay type in all cases: cell-based
# WIS1 naive human ESCs = test: PGCLC induction from naive ESCs, NANOS3-mCherry FACS; conditions: 2 days N2-KSR medium then 4 days PGC medium
# Excerpt: FIGS. 96A-96I depict the process of differentiating human ESCs into primordial germ cell like cells. FIG. 96A—schematic illustration of the differentiation process. FIGS. 96B-96I—FACS analyses for detecting PGCLC marker expression NANOS3-Cherry. […] Shown are FACS results after 2 (FIGS. 96D and 96G), 4 (FIGS. 96E and 96H), and 6 (FIGS. 96F and 961) days in the PGC medium. The Figures show specific induction of mCherry reporter at Day 2+4 and only when BMP4 is included in the differentiation medium (FIG. 96E). […] One representative experiment is shown out of five performed. +/− indicates s.d. (n=5).
# N2-KSR medium—250 ml Neurobasal medium (Invitrogen—#21103-049), 250 ml DMEM-F12, N2 supplement (Invitrogen, #17502-048), 1% KSR (knockout serum replacement, Invitrogen, #10828028) medium] with 8 ng/ml bFGF (Peprotech), 1 ng/ml TGF-β1 (Peprotech) and ROCKi (10 μM).
# PGC medium is comprised of GMEM (Invitrogen, #21710082), 15% KSR, 1% NNEA (Biological industries, 01-340-1B), Penicillin-Streptomycin, 1 mM L-Glutamine, […] (Y-27632, Axon Medchem) and the following cytokines: 500 ng/ml BMP4 (bone morphogenetic protein 4; R&D Systems Inc.), 20 ng/ml LIF (leukemia inhibitory factor; PeproTech), 100 ng/ml SCF (Stem Cell Factor; PeproTech), 50 ng/ml EGF (Epidermal Growth Factor; Peprotech). […]
# primed hESCs/hiPSCs = test: Pluripotency maintenance after supplementation of inhibitors or growth factors; conditions: primed human cells
# Description: (§1) Shown are histograms depicting colony formation of pluripotent cell lines in various media. Cell populations were equally divided and plated on gelatin/vitronectin coated plates in the indicated growth medium in which these cell lines are normally maintained (mouse naive cells in a medium containing 2i/LIF, naive hESCs/iPSCs in a WIS-NHSM medium, mouse EpiSCs and human primed ESCS/iPSCs in a KSR/bFGF/TGFβmedium). 36 hours later the wells were supplemented with the indicated inhibitors or growth factors. After 14 days (2 passages), wells were analyzed for Oct4-GFP pluripotency marker expression by FACS, to determine the relative percentage of pluripotent colonies. Pluripotent cell frequency was normalized to an internal control, as indicated by “Growth medium” only on the far left column (For naive cells growth medium was WIS-NHSM, and for primed cells was conventional KSR/bFGF/TGFβcontaining medium as specified in methods). […]
# (§2) FIGS. 108A-108C—Signaling and functional characteristics of human naive pluripotency. […] After 14 days (2 passages), wells were analyzed by OCT4 immunostaining of direct detection of OCT4-GFP pluripotency reporter expression, to determine the relative percentage of undifferentiated pluripotent cells. […] After 20 days, colonies positive for OCT4 pluripotency markers were counted and normalized to colonies from cells electroporated with empty vector. […]
# naive hESCs/hiPSCs = test: as above; conditions: naive human cells in WIS-NHSM
# Description: as §1, §2
molecule,measurement,setting,value
B1,cells expressing NANOS3-mCherry reporter,WIS1 naive human ESCs,17.7%
same,response of pluripotent state,primed hESCs/hiPSCs,differentiated
same,response of pluripotent state,naive hESCs/hiPSCs,do not differentiate
